Measured values from publication PMC4176334.

Tests used:
[1] = molecular target: T1, M. tuberculosis RNAP core;SigJ (Mycobacterium tuberculosis;Mycobacterium tuberculosis H37Rv?) (UniProt P9WGZ1+P9WGY9+P9WGY7+P9WGY5+L0TCG5); experiment: KMnO4 footprinting
[2] = molecular target: T2, M. tuberculosis RNAP core;SigJ;RbpA (Mycobacterium tuberculosis;Mycobacterium tuberculosis H37Rv?;Mycobacterium tuberculosis) (UniProt P9WGZ1+P9WGY9+P9WGY7+P9WGY5+L0TCG5+P9WHJ5); experiment: KMnO4 footprinting
[3] = molecular target: T1, M. tuberculosis RNAP core;SigJ (Mycobacterium tuberculosis;Mycobacterium tuberculosis H37Rv?); experiment: DNase I footprinting
[4] = molecular target: T2, M. tuberculosis RNAP core;SigJ;RbpA (Mycobacterium tuberculosis;Mycobacterium tuberculosis H37Rv?;Mycobacterium tuberculosis); experiment: DNase I footprinting
[5] = molecular target: M. tuberculosis RNAP core;SigA;RbpA (Mycobacterium tuberculosis;Mycobacterium tuberculosis;Mycobacterium tuberculosis) (UniProt P9WGZ1+P9WGY9+P9WGY7+P9WGY5+P9WGI1+P9WHJ5); experiment: EMSA
[6] = molecular target: M. tuberculosis RNAP core;SigA (Mycobacterium tuberculosis;Mycobacterium tuberculosis) (UniProt P9WGZ1+P9WGY9+P9WGY7+P9WGY5+P9WGI1); experiment: EMSA

Measured: binding

GCCCTCCCGCCGACCCATGCTGGAATTCATAACATCAAGGACGAGACAGCCCCGCCGAATGTGACAGCAACCGGCGATTTCAGCGCTCGGCGC (double strand) [sigIP promoter]
binds: [1] | [2] | [3] | [4]

TTGAGTTCTCAAACAACACGCTTGCTTGTTTCCGCCCGCTTCGGGGCAACCCTGCCAGTCTAATACAAATCCGGCAATGGAGTCAAGACCAGGTTCGGTCATCCATAGATATCCATAGGTGACCGTCGCCTAACAGCATACCCGTTCGAT (double strand) [rrnAP3 promoter]
binds: [5] | [6]
